Results: US20240092918A1 (Novartis, published 2024)

How the values were obtained:
Human CCR7 [1] = target: T1, Human CCR7 (human, UniProt P32248 25-378); test: cell-based or functional assay
T1 sequence: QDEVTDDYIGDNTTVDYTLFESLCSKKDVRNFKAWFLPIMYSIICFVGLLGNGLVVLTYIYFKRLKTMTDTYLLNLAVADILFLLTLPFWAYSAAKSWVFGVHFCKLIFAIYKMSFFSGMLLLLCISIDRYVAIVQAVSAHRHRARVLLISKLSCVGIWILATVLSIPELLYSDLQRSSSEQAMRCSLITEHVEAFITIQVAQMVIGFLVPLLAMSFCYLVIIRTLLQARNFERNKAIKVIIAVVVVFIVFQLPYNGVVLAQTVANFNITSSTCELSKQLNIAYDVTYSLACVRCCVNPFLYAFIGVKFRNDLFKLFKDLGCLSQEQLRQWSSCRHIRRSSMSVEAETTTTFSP

Human CCR7 [2] = target: T1, Human CCR7; test: FACS binding assay
Human CCR7 [3] = target: T1, Human CCR7; test: cell-based or functional assay; remark: listed apart in the source
Human CCR7 [4] = target: T1, Human CCR7; test: cell-based or functional assay; remark: listed apart in the source
Human CCR7 [5] = target: T1, Human CCR7; test: cell-based or functional assay; remark: listed apart in the source
Human CCR7 [6] = target: T1, Human CCR7; test: cell-based or functional assay; remark: listed apart in the source

B1: 684E12 non-humanized CysMab (antibody, human IgG1, kappa, V domains shown)
VH: EVHLVESGGGLVKPGGSLKLSCAASGFTFSNFAMSWVRQTPEKRLEWVATISTGGTYTYYPDSVKGRFTISRDNAKKTLYLQMSSLRSEDTAMYYCTRRGYDGVDKWGQGTTLTVSS
VL: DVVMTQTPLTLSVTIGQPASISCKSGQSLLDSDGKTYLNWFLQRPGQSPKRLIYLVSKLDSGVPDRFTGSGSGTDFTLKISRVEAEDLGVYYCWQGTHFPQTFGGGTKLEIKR
ADCC activity; IC50 (nM); surrogate ADCC reporter assay, JVM2 target cells and Jurkat-V158 effector cells (Human CCR7 [1]): 2.63 nM

B2: 684E12.SMCC.DM1 (antibody, V domains shown)
VH: B1 VH
VL: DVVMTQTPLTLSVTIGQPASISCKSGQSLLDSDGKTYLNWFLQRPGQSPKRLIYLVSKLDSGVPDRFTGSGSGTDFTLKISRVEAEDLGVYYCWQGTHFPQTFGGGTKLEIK
modifications: SMCC-DM1 on lysines of the antibody, sites not defined; DAR 2.6
notes: also called parental 684E12.SMCC.DM1 (DAR2.6)
geometric mean fluorescence intensity, difference from the unconjugated antibody (Human CCR7 [2]): ≤ 20%

B3: 121G12 non-humanized CysMab (antibody, human IgG1, kappa, V domains shown)
VH: EVQLVESGGGLVKPGGSLKLSCAASGFTFSTYAMSWVRQTPEKRLEWVATISDGGSYSYYPDNVKGRFTISRDNAKNNLYLQMSHLKSEDTAMYYCARRGSRYEEYYVMDYWGQGTSVTVSS
VL: DIVLTQSPATLSVTPGDSVSLSCRASQSISNNLHWYQQKSHESPKLLIKYASQSISGIPSRFSGSGSGTDFTLSINSVETEDFGMYFCQQSNSWLTFGAGTKLGLKR
ADCC activity; IC50 (nM); surrogate ADCC reporter assay, JVM2 target cells and Jurkat-V158 effector cells (Human CCR7 [1]): 0.077 nM

B4: 121G12.CysMab.AURIX1 (antibody, human IgG1, kappa, V domains shown)
VH: B3 VH
VL: B3 VL
modifications: AURIX1 on the engineered cysteines; DAR 3.80
notes: also called 121G12.AURIX1; 121G12 parental.Cys-Mab.wild type Fc.hIgG1.AURIX1
geometric mean fluorescence intensity, difference from the unconjugated antibody (Human CCR7 [2]): ≤ 20%

B5: 506E15 (Humanized CysMab DAPA) (antibody, human IgG1, kappa, V domains shown)
VH: EVQLVESGGGLVKPGGSLRLSCAASGFTFSSYAMSWIRQAPGKGLEWVATISSGGSFTYYPDSVKGRFTISRDNAKNSLYLQMNSLRAEDTAVYYCARRASTVVGTDFDVWGQGTTVTVSS
VL: DIQMTQSPSSLSASVGDRVTLTCRASQDIGSSLNWLQQKPGKAIKRLIYATSSLDSGVPSRFSGSRSGTDYTLTISSLQPEDFVVYYCLQYASSPPTFGGGTKLEIKR
pHrodo (6 h MFI), uptake of pHrodo-labelled antibody at 5 ug/ml, CD4+ T cells (2000 receptors) (Human CCR7 [3]): 429 MFI | pHrodo (6 h MFI), uptake of pHrodo-labelled antibody at 5 ug/ml, CMLT1 cells (19583 receptors) (Human CCR7 [3]): 465 MFI | pHrodo (6 h MFI), uptake of pHrodo-labelled antibody at 5 ug/ml, DEL cells (110685 receptors) (Human CCR7 [3]): 3060 MFI | pHrodo (6 h MFI), uptake of pHrodo-labelled antibody at 5 ug/ml, JVM3 cells (8717 receptors) (Human CCR7 [3]): 238 MFI | pHrodo (6 h MFI), uptake of pHrodo-labelled antibody at 5 ug/ml, Jeko-1 cells (28852 receptors) (Human CCR7 [3]): 908 MFI | pHrodo (6 h MFI), uptake of pHrodo-labelled antibody at 5 ug/ml, KE97 cells (152093 receptors) (Human CCR7 [3]): 2720 MFI | pHrodo (6 h MFI), uptake of pHrodo-labelled antibody at 5 ug/ml, L540 cells (167549 receptors) (Human CCR7 [3]): 16100 MFI | pHrodo (6 h MFI), uptake of pHrodo-labelled antibody at 5 ug/ml, L1236 cells (61602 receptors) (Human CCR7 [3]): 3130 MFI | pHrodo (6 h MFI), uptake of pHrodo-labelled antibody at 5 ug/ml, MJ cells (111121 receptors) (Human CCR7 [3]): 3870 MFI | pHrodo (6 h MFI), uptake of pHrodo-labelled antibody at 5 ug/ml, MOTN1 cells (84200 receptors) (Human CCR7 [3]): 2900 MFI | pHrodo (6 h MFI), uptake of pHrodo-labelled antibody at 5 ug/ml, Mec2 cells (50840 receptors) (Human CCR7 [3]): 3090 MFI

B6: 506E15.CysMab.DAPA.AURIX2 (antibody, human IgG1, kappa, V domains shown)
VH: B5 VH
VL: B5 VL
modifications: AURIX2 on the engineered cysteines; DAR 3.80
notes: also called 506E15.DAPA.AURIX2
geometric mean fluorescence intensity, difference from the unconjugated antibody (Human CCR7 [2]): ≤ 20%

B7: 506E15 humanized CysMab (Fc Wild Type) (antibody, human IgG1, V domains shown)
VH: B5 VH
VL: DIQMTQSPSSLSASVGDRVTLTCRASQDIGSSLNWLQQKPGKAIKRLIYATSSLDSGVPSRFSGSRSGTDYTLTISSLQPEDFVVYYCLQYASSPPTFGGGTKLEIK
ADCC activity; IC50 (nM); surrogate ADCC reporter assay, JVM2 target cells and Jurkat-V158 effector cells (Human CCR7 [1]): 0.054 nM

B8: 121G12.CysMab.DAPA.MPET.DM4 (antibody, human IgG1, kappa)
heavy: EVQLVESGGGLVKPGGSLRLSCAASGFTFSTYAMSWVRQAPGKGLEWVATISDAGSYSYYPDNVKGRFTISRDNAKNSLYLQMNSLRAEDTAVYYCARRGSRYEEYYVMDYWGQGTTVTVSSASTKGPSVFPLAPSSKSTSGGTAALGCLVKDYFPCPVTVSWNSGALTSGVHTFPAVLQSSGLYSLSSVVTVPSSSLGTQTYICNVNHKPSNTKVDKRVEPKSCDKTHTCPPCPAPELLGGPSVFLFPPKPKDTLMISRTPEVTCVVVAVSHEDPEVKFNWYVDGVEVHNAKTKPREEQYNSTYRVVSVLTVLHQDWLNGKEYKCKVSNKALAAPIEKTISKAKGQPREPQVYTLPPSREEMTKNQVSLTCLVKGFYPCDIAVEWESNGQPENNYKTTPPVLDSDGSFFLYSKLTVDKSRWQQGNVFSCSVMHEALHNHYTQKSLSLSPGK
light: EIVLTQSPATLSVSPGERVTLSCRASQSISNNLHWYQQKPGQAPRLLIKYASQSISGIPARFSGSGSGTDFTLTISSVEPEDFGVYFCQQSSSWLTFGQGTKLEIKRTVAAPSVFIFPPSDEQLKSGTASVVCLLNNFYPREAKVQWKVDNALQSGNSQESVTEQDSKDSTYSLSSTLTLSKADYEKHKVYACEVTHQGLSSPVTKSFNRGEC
modifications: MPET.DM4 linker-drug on the engineered cysteines (E152C, S375C, EU numbering); DAR 3.79
notes: also called 121G12.CysMab.DAPA.MPET.DM4 (DAR 3.8); MPET.DM4 ADC
geometric mean fluorescence intensity, difference from the unconjugated antibody (Human CCR7 [2]): ≤ 20% | In vitro cytotoxic activity, IC50 (nM); DEL cells (relative receptor density 67%) (Human CCR7 [4]): 2.28 nM | In vitro cytotoxic activity, IC50 (nM); JVM2 cells (relative receptor density 79%) (Human CCR7 [4]): 4.62 nM | In vitro cytotoxic activity, IC50 (nM); KE97 cells (relative receptor density 100%) (Human CCR7 [4]): 2.24 nM | In vitro cytotoxic activity, IC50 (nM); L540 cells (relative receptor density 175%) (Human CCR7 [4]): 4.9 nM | In vitro cytotoxic activity, IC50 (nM); MOTN1 cells (relative receptor density 67%) (Human CCR7 [4]): 4.24 nM | In vitro cytotoxic activity, IC50 (nM); Mec-2 cells (relative receptor density 15%) (Human CCR7 [4]): > 20 nM | In vitro cytotoxic activity, IC50 (nM); OCI-Ly3 cells (relative receptor density 43%) (Human CCR7 [4]): 6.42 nM | In vitro cytotoxic activity, IC50 (nM); PEER cells (relative receptor density 2%) (Human CCR7 [4]): > 20 nM | In vitro cytotoxic activity, IC50 (nM); SUPHD1 cells (relative receptor density 310%) (Human CCR7 [4]): 1.69 nM

B9: 121G12.DAPA.sSPDB.DM4 (antibody, human IgG1, kappa)
heavy: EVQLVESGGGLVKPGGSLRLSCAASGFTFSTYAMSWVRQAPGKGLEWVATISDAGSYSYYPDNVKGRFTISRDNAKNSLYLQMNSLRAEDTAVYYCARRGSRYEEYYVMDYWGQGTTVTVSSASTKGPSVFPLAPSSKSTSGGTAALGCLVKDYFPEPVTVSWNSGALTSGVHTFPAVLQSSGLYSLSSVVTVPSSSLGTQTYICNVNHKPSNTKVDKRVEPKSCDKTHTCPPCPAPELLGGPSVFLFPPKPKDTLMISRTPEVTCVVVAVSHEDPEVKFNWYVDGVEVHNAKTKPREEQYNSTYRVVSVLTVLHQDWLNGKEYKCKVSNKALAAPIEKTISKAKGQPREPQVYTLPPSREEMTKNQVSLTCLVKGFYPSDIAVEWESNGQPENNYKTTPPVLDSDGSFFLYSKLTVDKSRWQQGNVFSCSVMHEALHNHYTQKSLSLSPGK
light: B8 light
modifications: sulfo-SPDB-DM4 on endogenous lysines, sites not defined; sulfo-SPDB-DM4 on endogenous lysines, sites not defined (DAR 3.6 as prepared; labelled DAR3.9 in the assays)
notes: also called 121G12.DAPA.sSPDB.DM4 (DAR3.9); sSPDB.DM4 ADC
geometric mean fluorescence intensity, difference from the unconjugated antibody (Human CCR7 [2]): ≤ 20%

B10: 506E15 Parental (antibody, V domains shown)
VH: EVMLVESGGGLVKPGGSLKLSCAASGFTFSSYAMSWIRQTPEKRLEWVATISSGGSFTYYPDSVKGRFTISRDNVKNTLYLQMSSLRSEDTAMYYCARRASTVVGTDFDVWGAGTTVTVSS
VL: DIQMTQSPSSLSASLGERVSLTCRASQDIGSSLNWLQQEPDGTIKRLIYATSSLDSGVPKRFSGSRSGSDYSLTISSLESEDFVVYYCLQYASSPPTFGGGTKLEIK
506E15 IC50 (nM); ADCC reporter assay, ALL-SIL cells (6,200 CCR7 receptors) (Human CCR7 [5]): 0.008 nM | 506E15 IC50 (nM); ADCC reporter assay, CMLT-1 cells (29,000 CCR7 receptors) (Human CCR7 [5]): 0.011 nM | 506E15 IC50 (nM); ADCC reporter assay, DEL cells (62,000 CCR7 receptors) (Human CCR7 [5]): 0.074 nM | 506E15 IC50 (nM); ADCC reporter assay, DND-41 cells (1,700 CCR7 receptors) (Human CCR7 [5]): 0.002 nM | 506E15 IC50 (nM); ADCC reporter assay, JVM2 cells (66,500 CCR7 receptors) (Human CCR7 [5]): 0.046 nM | 506E15 IC50 (nM); ADCC reporter assay, Jurkat V158 cells (3,400 CCR7 receptors) (Human CCR7 [5]): 0.004 nM | 506E15 IC50 (nM); ADCC reporter assay, MOTN-1 cells (64,600 CCR7 receptors) (Human CCR7 [5]): 0.077 nM | 506E15 IC50 (nM); ADCC reporter assay, PEER cells (8,700 CCR7 receptors) (Human CCR7 [5]): 0.038 nM | 506E15 IC50 (nM); ADCC reporter assay, SR786 cells (27,800 CCR7 receptors) (Human CCR7 [5]): 0.011 nM

B11: 506E15 non-humanized CysMab (antibody, human IgG1, kappa, V domains shown)
VH: B10 VH
VL: DIQMTQSPSSLSASLGERVSLTCRASQDIGSSLNWLQQEPDGTIKRLIYATSSLDSGVPKRFSGSRSGSDYSLTISSLESEDFVVYYCLQYASSPPTFGGGTKLEIKR
ADCC activity; IC50 (nM); surrogate ADCC reporter assay, JVM2 target cells and Jurkat-V158 effector cells (Human CCR7 [1]): 0.131 nM

B12: 674J13.CysMab.DAPA.AURIX2 (antibody, human IgG1, kappa, V domains shown)
VH: DVQLQESGPGLVKPSQTLSLTCTVSGYSITSGYSWHWIRQHPGKGLEWMAHIHSSGSTNYNPSLKSRITISRDTSKNQFSLKLSSVTAADTAVYYCARGGVQAFAYWGQGTLVTVSS
VL: EIVLTQSPATLSASPGERVTMSCSASSSVIYMHWYQQKPGQAPRRWIYDTSKLASGVPARFSGSGSGTDYTLTISSMEPEDAAVYYCQQWSSNPLTFGQGTKLEIKR
modifications: DAR LC 0.03; AURIX2 on the engineered cysteines; DAR HC 3.93
notes: also called 674J13.DAPA.AURIX2
ADC activity in cell viability assay; IC50 (nM); CML-T1 cells (~29,000 CCR7 receptors) (Human CCR7 [6]): 3.78 nM | ADC activity in cell viability assay; IC50 (nM); DEL cells (~100,000 CCR7 receptors) (Human CCR7 [6]): 0.242 nM | ADC activity in cell viability assay; IC50 (nM); KE97 cells (~100,000 CCR7 receptors) (Human CCR7 [6]): 0.102 nM | ADC activity in cell viability assay; IC50 (nM); SR786 cells (~28,000 CCR7 receptors) (Human CCR7 [6]): 2.74 nM | geometric mean fluorescence intensity, difference from the unconjugated antibody (Human CCR7 [2]): ≤ 20%

B13: 674J13 non-humanized CysMab (antibody, human IgG1, kappa, V domains shown)
VH: DVQLQESGPDLVKPSQSLSLTCTVTGYSITSGYSWHWIRQFPGNKLEWMAHIHSSGSTNYNPSLKSRISIIRDTSKNLFFLQLNSVTTEDTATYYCARGGVQAFAYWGQGTLVTVSA
VL: QIVLTQSPAIMSASPGEKVTMTCSASSSVIYMHWYQQKSGTSPKRWIYDTSKLASGVPARFSGSGSGTSYSLTISSMEAEDAATYYCQQWSSNPLTFGAGTTLELKR
ADCC activity; IC50 (nM); surrogate ADCC reporter assay, JVM2 target cells and Jurkat-V158 effector cells (Human CCR7 [1]): 1.09 nM
